Marks after values point to notes of the source that are not given here.
B1: A011: house dust mite protein; SEQ ID NO: 39 (Der f), 40 (Der p), 309 (Blo t) (protein)
chain: KSAPEGCFRAAVLDHVHQTDARHLSNTAKIIDLNFKVYEDAAALAKKQGADIIVFPENGLIYSILSREKADEFASDIPDAEVNACTLDSKFVYNRLACLAQKHQMFVVADLIDRKSCEELGINNVSDSCPADKKFLFNTAVLFDRQGKLLGRYHKMHLFGEISMNPPPKPELLVIDTELGRLGMQICFDMIFKTPGYLLAQENKFDTMLFPTWWFDESPMLSSSQYQMAWAFGNNVTLLASNIHRIEVGSRGSGIYVGPHRTLAAALYDDSVERLVLANVPIKPKETDQSACPLDSEIIEVPQQIPIPKSVKYHHQNLNLKDVTLLQLSSNESEVHLCHKGVCCQFEYRLAMKDQPQESWVDRVPLLANMLHYLTPEERYYLLIANRTRPGAYPWSEEFCAVVVCPSSRWNFGKMQKDCSKIGSNQELSSRFVHAKLRGKFSEDTAVYPSAVGSKNQLIYPENKWKFWKVNVPNEPEYFIELGAKDNSESRAMELGALVLYGRNYNRDPRYEQKALPIN
B2: A010: house dust mite protein; SEQ ID NO: 41 (Der p), 42 (Der f), 308 (Blo t) (protein)
chain: DSLKCSSIRNEDRIDCNPDPPISKNVCEQRGCCWKTAGNDLKNLSSKVLPNLNVPYCYYGENYIGYKIEKHSKNLIQLKRNRSSGFARDIENINIEIHELNDKVIRLKFIDANKKRYEVPIPKLNLPSTTSSSSSNSRLYSVELDGSHLIVRRRETNQSIFDINLAYMVYSDQLIHVTSRLPSKYIYGLGEHRAPFRKNTNWKRYTQWTRDQYPVTDKALYGNHPFYLTVEDESPKKSASGVFLFNSNAMDIITQPSPAITFRTIGGILDFFVFFGPKPEDVISQYQNLIGLPAMPPFWSLGYQQCRYGYNNFTNLNTTYTRNRAVGIPMDVQWTDIDAFNSNNDFTYDHKRFKELPDFINNVLHPNGQKFIPMFDCGISSGEPAGSYKPFDSGVELDVFVKNSSNKIFRGKVWNGKSTVWPDFSHPNATEYWMDMFAEYHKTIAFDGAWLDMNEPSNFYNGEEHGCPESEIENPQYVPGMTDDSLTLRHKTLCMTARHYNDQLHYNLHNLYSLSMAMATNAALTKLNKRPFIISRATAPGHGHWAYHWNGDILSDWSSMRWTIPSILNFNMFGIPMVGADICGFGGNTAEELCIRWYQLGAFYSFARNHNDIHSIDQDPAALGESVIRAARSSLQYRYRFLAHLYTLFYHVHKNGGTVLRPMFFEFPHDEHTYEIETQFMWGDSVLIAPILYPNQTQHKIYLPKGTWYNRKVSFESQGQYITMNDSYDDIDYVFVRGGSIIPTQEPHDNTELMKTKDFLLIVALDNQTSYAKGSLYWDSGDSLNPDKTGHYNFYNFDAVNNTLTIQSQWLGYQTTQNINFINILGVPKLPTSFKLNGHVSDPRIIRFNYDEQTNILTVETKLPIYNQDSSSHDRIHYQFEWIME
B3: A009: house dust mite protein; SEQ ID NO: 43 (Der f), 44 (Der p), 307 (Blo t) (protein)
chain: VVIKVENLPEQCDYTQCPKWSKDDINVHLVAHTHDDVGWLKTVEQYYYGLKNDIQRAGVQYILDTMIEELIRNKDRRFIYVEIAFFWKWWQEQNEEQRMIVKELVRTGQLEFINGGWSMPDEAATHYNSLIDQSTWGLRQLNDTFGRCGHPKVTWQIDPFGHSKEMANLYAQMGYDALFFARQDYQDRENRMSNRTLEHVWQGSDDLGEIGDIFTGMMFSGYGPIEFNWDITNGPEDAVVDNPESEEYNVPDKIRRFVEKAKYFGQFYATNHFMFPMGTDFQYTDAHTWFKNLDKLINAVNKAGKGVRAFYSTPSCYAHALYEQNRTWTTKTDDFFPYASDEHAYWTGYFTSRPAIKRMERIGNNLLQACKQLDVLADNNGRFEMNLTKMREAMGVMQHHDAVTGTEKQHVAFNYAKMLDSAMLQCRHIINESYKKLLPKSSTSEHEFCPYLNISSCPTTEMGESRIIYLYNPLGHRLINHTVRLPIKNGYYYRIQDQNNQSVPSVLVPIPEFVQKIPGRKSVATKELVFRVPVIEPLGITTMYMYVDKNEQPNSAIEIKGENPDDNDDKSKWLVLTKNLIVEFYSNGTISRISIDKLHQSISISNEFRLYHGAGGTGRHSGAYIFRPNEQKTFPVTNKIKSTFFIDRKYHIVQEVHQQFDSSFVGQIIRMDKYNDNVEFDFVVGPIPVNDQIGKEIIASYKTDLENDETFYTDANGRQMLRRRWNYRPSWKYNVQEPISGNYYPVNSRIAIRDEKQSLQMTIMTDRSQGGSLSPEQINGSIDIMIHRRLLHDDYFGVGEALNEPGVDGHGLVIRGKHLLLLNSIKQSASEHRPLAQQMFMEPIISFTSIESNKQAEKQSNQYIGLNNDLPSNVHLLTLEQWHSKRYLLRLEHFYQSNEDTELSKPVKLSLRHLFKSFEIIAVEELTLGANQPISSLKNRLHYRYNRPLEQRQQQQSSLLLDDPKIEGENFDIHLSPMQIRTFLIDIKRN

Columns and labels:
Type in all cases: cell-based, human
[1] = test system: basophils in whole blood from HDM allergic donors; assay: Basophil Activation Test (BAT); details: blood from HDM allergic individuals (n=14)
Method: Basophil Activation Test (BAT) was used as a predictive in vitro assay for indication of safety/immediate hypersensitivity reactions. The BAT assay is a widely used diagnostic test that is also used for evaluation of allergenicity of allergen derived components. In short: whole blood from HDM allergic donors was stimulated for 1 h with the proteins, and the increased expression of activation markers on the surface of basophils were measured by flow cytometry. The BAT test was carried out using different concentrations of the proteins and the allergens Der p 2 and Der p 1 was used as controls and tested in the same concentration rates.
(§1) This example relates to the further testing of immunogenicity of the proteins identified in Example 1. Their ability to react with IgE antibodies in HDM allergic individuals, to stimulate in vitro T cell proliferation of HDM allergic individuals and non-allergics, and to stimulate ex vivo cytokine production of HDM allergic individuals and non-allergics. The following tests were used: • Basophil Activation Test (BAT) was used as a predictive in vitro assay for indication of safety/immediate hypersensitivity reactions. BAT test was carried out using blood from HDM allergic individuals (n=14), and by use of different concentrations of test proteins or the major house dust mite allergens (Der p 1, Der f 1, Der p 2 or Der f 2, e.g. a concentration of 1, 10, 100 or 1000 ng/ml. • In vitro T cell reactivity determined in T cell lines obtained from HDM allergic individuals (n=30) and non-allergics (n=8): Determined by establishment of HDM specific T-cell lines according to standard methods. In short, PMBCs from HDM allergic donors were cultured for 3 weeks in the presence of house dust mite allergen extract. The responses to proteins at a concentration of 0.5 ug/ml or 2 ug/ml of the test protein or the major house dust mite allergens (Der p 1, Der f 1, Der p 2 or Der f 2) were assessed by proliferation in a standard 72 h T cell proliferation assay, as described in Henmar H et al., Clin Exp Immunol 2008; 153(3):316-23. […]. • Ex vivo stimulation of PBMC cells obtained from mite allergic patients (n=16) and non-allergics (n=6): Determined by measuring the production of the cytokines; IFN-gamma, IL-9, IL-10, IL-17 and IL-31 following stimulation with test protein in concentration up to 10 ug/ml. Freshly isolated PBMC 5×10^6/ml were cultured with a test protein for 5 days and cell supernatant were harvested and stored at −80° C. Cytokines of the supernatants were measured using ProcartaPlex Multiplex Immunoassays with MAGPIX Multiplex Reader according manufactory protocol.

[2] = test system: T cell lines obtained from HDM allergic individuals and non-allergics; assay: In vitro T cell proliferation test in T cell lines (Example 3); details: 0.5 or 2 ug/ml, 72 h; for % responders of in-vitro T cell proliferation test, Allergic: T cell lines from HDM allergic individuals (n=30); for % responders of in-vitro T cell proliferation test, Non-allergics: T cell lines from non-allergics (n=8)
Source text: as §1

[3] = test system: PBMC cells obtained from mite allergic patients and non-allergics; assay: Ex vivo stimulation of PBMC: cytokine production (IFN-gamma, IL-9, IL-10, IL-17, IL-31)
Source text: as §1

Molecule | # of individuals of 14 with positive BAT test ([1]; 1 ng/ml) | # of individuals of 14 with positive BAT test ([1]; 10 ng/ml) | # of individuals of 14 with positive BAT test ([1]; 100 ng/ml) | # of individuals of 14 with positive BAT test ([1]; 1000 ng/ml) | % responders of in-vitro T cell proliferation test, Allergic [2] | % responders of in-vitro T cell proliferation test, Non-allergics [2] [%] | % HDM allergic individuals with cytokine production in ex-vivo T cell assay IL-5 [3] [%] | % HDM allergic individuals with cytokine production in ex-vivo T cell assay IL-9 [3] [%] | % HDM allergic individuals with cytokine production in ex-vivo T cell assay IL-10 [3] [%] | % HDM allergic individuals with cytokine production in ex-vivo T cell assay IL-13 [3] [%] | % HDM allergic individuals with cytokine production in ex-vivo T cell assay IL-17 [3] [%] | % HDM allergic individuals with cytokine production in ex-vivo T cell assay IL-31 [3] [%] | % HDM allergic individuals with cytokine production in ex-vivo T cell assay INF-g [3] [%] | % non-allergic individuals with cytokine production in ex-vivo T cell assay IL-5 [3] [%] | % non-allergic individuals with cytokine production in ex-vivo T cell assay IL-9 [3] [%] | % non-allergic individuals with cytokine production in ex-vivo T cell assay IL-10 [3] [%] | % non-allergic individuals with cytokine production in ex-vivo T cell assay IL-13 [3] [%] | % non-allergic individuals with cytokine production in ex-vivo T cell assay IL-17 [3] [%] | % non-allergic individuals with cytokine production in ex-vivo T cell assay IL-31 [3] [%] | % non-allergic individuals with cytokine production in ex-vivo T cell assay INF-g [3] [%]
B1 | 0 | 0 | 0 | 1 | 64% | 13 | 25 | 6 | 13 | 19 | 6 | 6 | 0 | 0 | 0 | 0 | 0 | 0 | 0 | 17
B2 | 0 | 0 | 0 | 1 | 100* % | 14 | 31 | 13 | 38 | 44 | 13 | 6 | 0 | 0 | 0 | 0 | 0 | 0 | 0 | 0
B3 | 0 | 0 | 0 | 3 | 36% | 63 | 0 | 0 | 94 | 6 | 19 | 0 | 19 | 0 | 0 | 100 | 0 | 33 | 0 | 50
